To fix the notation:
T1: recombinant human TIGIT (human, UniProt Q495A1 22-141, limits assumed)
T1 construct: recombinant human TIGIT used in Carterra SPR; also called hTIGIT
T1 sequence (looked up): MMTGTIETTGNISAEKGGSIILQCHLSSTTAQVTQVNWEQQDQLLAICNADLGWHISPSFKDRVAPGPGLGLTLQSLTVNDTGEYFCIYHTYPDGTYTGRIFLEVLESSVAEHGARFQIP

B1: TIGIT-SC119 (Fc fusion)
VHH: EVQLVESGGGLVQPGGSLRLSCAASGNTFSGGFMGWFRQAPGKEREWVASVLRGGYTWYADSVKGRFTISADNSKNTAYLQMNSLKPEDTAVYYCAKDGGWFDPWGQGTLVTVSS
notes: VHH-Fc fusion in assay
B2: TIGIT-SC37 (Fc fusion)
VHH: EVQLVESGGGLVQPGGSLRLSCAASGNTFSGGFMGWFRQAPGKEREWVASVLRGGYTWYADSVKGRFTISADNSKNTAYLQMNSLKPEDTAVYYCVFGGVWQDVWGQGTLVTVSS
notes: VHH-Fc fusion in assay
B3: TIGIT-SC189 (Fc fusion)
VHH: EVQLVESGGGLVQPGGSLRLSCAASGNTFSGGFMGWFRQAPGKEREWVASVLRGGYTWYADSVKGRFTISADNSKNTAYLQMNSLKPEDTAVYYCVTDVGAPDYWGQGTLVTVSS
notes: VHH-Fc fusion in assay
B4: TIGIT-SC17 (Fc fusion)
VHH: EVQLVESGGGLVQPGGSLRLSCAASGFDFSVSWMGWFRQAPGKEREWVASVLRGGYTWYADSVKGRFTISADNSKNTAYLQMNSLKPEDTAVYYCAREGSWFDYWGQGTLVTVSS
notes: VHH-Fc fusion in assay
B5: TIGIT-SC165 (Fc fusion)
VHH: EVQLVESGGGLVQPGGSLRLSCAASGNTFSGGFMGWFRQAPGKEREWVASVLRGGYTWYADSVKGRFTISADNSKNTAYLQMNSLKPEDTAVYYCTTEGSGWRNWGQGTLVTVSS
notes: VHH-Fc fusion in assay
B6: TIGIT-SC120 (Fc fusion)
VHH: EVQLVESGGGLVQPGGSLRLSCAASGFTFSPSWMGWFRQAPGKEREWVASVLRGGYTWYADSVKGRFTISADNSKNTAYLQMNSLKPEDTAVYYCAKDGGWFDPWGQGTLVTVSS
notes: VHH-Fc fusion in assay
B7: TIGIT-SC190 (Fc fusion)
VHH: EVQLVESGGGLVQPGGSLRLSCAASGFTFDRSWMGWFRQAPGKEREWVASVLRGGYTWYADSVKGRFTISADNSKNTAYLQMNSLKPEDTAVYYCVTDVGAPDYWGQGTLVTVSS
notes: VHH-Fc fusion in assay
B8: TIGIT-SC64 (Fc fusion)
VHH: EVQLVESGGGLVQPGGSLRLSCAASGFAFSNFGMGWFRQAPGKERELVSAIGWSGASTYYADSVKGRFTISADNSKNTAYLQMNSLKPEDTAVYYCARRGRTIPFDYWGQGTLVTVSS
notes: VHH-Fc fusion in assay
B9: TIGIT-SC28 (Fc fusion)
VHH: EVQLVESGGGLVQPGGSLRLSCAASGRTFSTDAMGWFRQAPGKEREFVATINWKDGFTYYADSVKGRFTISADNSKNTAYLQMNSLKPEDTAVYYCAGVGHDYGDYLFDYWGQGTLVTVSS
notes: VHH-Fc fusion in assay
B10: TIGIT-SC136 (Fc fusion)
VHH: EVQLVESGGGLVQPGGSLRLSCAASGFTLENNMMGWFRQAPGKEREFVAAISRSGTLKAYADSVKGRFTISADNSKNTAYLQMNSLKPEDTAVYYCARGGELTTFYFGYWGQGTLVTVSS
notes: VHH-Fc fusion in assay
B11: TIGIT-SC150 (Fc fusion)
VHH: EVQLVESGGGLVQPGGSLRLSCAASGFTLENNMMGWFRQAPGKEREFVAAISRSGTLKAYADSVKGRFTISADNSKNTAYLQVNSLKPEDTAVYYCVRVRGYSGYDCDYWGQGTLVTVSS
notes: VHH-Fc fusion in assay
B12: TIGIT-SC2 (Fc fusion)
VHH: EVQLVESGGGLVQPGGSLRLSCAASGFTLSSNWMGWFRQAPGKEREMVAAIDWSGGSALYADSVKGRFTISADNSKNTAYLQMNSLKPEDTAVYYCAKDALSNSARFDHWGQGTLVTVSS
notes: VHH-Fc fusion in assay
B13: TIGIT-SC124 (Fc fusion)
VHH: EVQLVESGGGLVQPGGSLRLSCAASGSIFSSNWMGWFRQAPGKEREMVAAIDWSGGSALYADSVKGRFTISADNSKNTAYLQMNSLKPEDTAVYYCAKDALSNSARFDHWGQGTLVTVSS
notes: VHH-Fc fusion in assay
B14: TIGIT-SC125 (Fc fusion)
VHH: EVQLVESGGGLVQPGGSLRLSCAASGFTLSGNWMGWFRQAPGKEREMVAAIDWSGGSALYADSVKGRFTISADNSKNTAYLQMNSLKPEDTAVYYCAKDALSNSARFDHWGQGTLVTVSS
notes: VHH-Fc fusion in assay
B15: TIGIT-SC12 (Fc fusion)
VHH: EVQLVESGGGLVQPGGSLRLSCAASGRTFSAYGMGWFRQAPGKEREFVAAITPSSRTTYYADSVKGRFTISADNSKNTAYLQMNSLKPEDTAVYYCAKDNWGEWLMPWWGQGTLVTVSS
notes: VHH-Fc fusion in assay
B16: TIGIT-SC56 (Fc fusion)
VHH: EVQLVESGGGLVQPGGSLRLSCAASGNTFSGGFMGWFRQAPGKEREWVASVLRGGYTWYADSVKGRFTISADNSKNTAYLQMNSLKPEDTAVYYCAHSKGYNWFDPWGQGTLVTVSS
notes: VHH-Fc fusion in assay
B17: TIGIT-SC41 (Fc fusion)
VHH: EVQLVESGGGLVQPGGSLRLSCAASGMTTIGPMGWFRQAPGKEREFVASIAWGDGNTYYADSVKGRFTISADNSKNTAYLQMNSLKPEDTAVYYCVRGGSRTLWGQGTLVTVSS
notes: VHH-Fc fusion in assay
B18: TIGIT-SC167 (Fc fusion)
VHH: EVQLVESGGGLVQPGGSLRLSCAASGRTFSFMGWFRQAPGKEREWVASVLRGGYTWYADSVKGRFTISADNSKNTAYLQMNSLKPEDTAVYYCAREGSGYASDYWGQGTLVTVSS
notes: VHH-Fc fusion in assay
B19: TIGIT-SC185 (Fc fusion)
VHH: EVQLVESGGGLVQPGGSLRLSCAASGRTFSFMGWFRQAPGKEREWVASVLRGGYTWYADSVKGRFTISADNSKNTAYLQMNSLKPEDTAVYYCTTDRGYNWNYDWGQGTLVTVSS
notes: VHH-Fc fusion in assay
B20: TIGIT-SC73 (Fc fusion)
VHH: EVQLVESGGGLVQPGGSLRLSCAASGSSFSLADYAMGWFRQAPGKEREFVAAISYNVGTTYYADSVKGRFTISADNSKNTAYLQMNSLKPEDTAVYYCARWSAKRHSDTMTYYMDVWGQGTLVTVSS
notes: VHH-Fc fusion in assay
B21: TIGIT-SC180 (Fc fusion)
VHH: EVQLVESGGGLVQPGGSLRLSCAASGFTLNDYAMGWFRQAPGKERELVAWIARYDGSTLYADSVKGRFTISADNSKNTAYLQMNSLKPEDTAVYYCASEVASGETDYWGQGTLVTVSS
notes: VHH-Fc fusion in assay
B22: TIGIT-SC126 (Fc fusion)
VHH: EVQLVESGGGLVQPGGSLRLSCAASGSIFSGNVMGWFRQAPGKERELVAAISNSASSTVYADSVKGRFTISADNSKNTAYLQMNSLKPEDTAVYYCARDWNLFDYWGQGTLVTVSS
notes: VHH-Fc fusion in assay
B23: TIGIT-SC127 (Fc fusion)
VHH: EVQLVESGGGLVQPGGSLRLSCAASGSIFSGNAMGWFRQAPGKERELVAAISNSASSTVYADSVKGRFTISADNSKNTAYLQMNSLKPEDTAVYYCARDWNLFDYWGQGTLVTVSS
notes: VHH-Fc fusion in assay
B24: TIGIT-SC147 (Fc fusion)
VHH: EVQLVESGGGLVQPGGSLRLSCAASGTITSAVFMGWFRQAPGKEREFVAAVIWRGGSLKSYADSVKGRFTISADNSKNTAYLQMNSLKPEDTAVYYCAKLAVAGNYYYYGMDVWGQGTLVTVSS
notes: VHH-Fc fusion in assay
B25: TIGIT-SC154 (Fc fusion)
VHH: EVQLVESGGGLVQPGGSLRLSCAASGFAFSSDWMGWFRQAPGKEREWVASVLRGGYTWYADSVKGRFTISADNSKNTAYLQMNSLKPEDTAVYYCAGDYRGFEMAFDPWGQGTLVTVSS
notes: VHH-Fc fusion in assay
B26: TIGIT-SC80 (Fc fusion)
VHH: EVQLVESGGGLVQPGGSLRLSCAASGNIPPINAMGWFRQAPGKEREFVAAINYSGGSTYYADSVKGRFTISADNSKNTAYLQMNSLKPEDTAVYYCARWHYDILTGYYWLDSWGQGTLVTVSS
notes: VHH-Fc fusion in assay

For this assay, the target named is T1, recombinant human TIGIT. The assay can be described thus: SPR Carterra, average. The protocol: Binding affinities of VHH-Fc proteins to recombinant human TIGIT were measured by SPR using a Carterra instrument (Table 10A). […] Average values reported from measurements from 1-2 samples.
Regarding B1, the Kd (usually the concentration at which binding is half-saturated) is 19.7 nM; the koff (in general, a measure of how fast the partners let go of each other) was 0.00367 s⁻¹; the kon – broadly, the rate constant with which the complex forms – came out at 196000 M⁻¹ s⁻¹.
On to B2, for which the Kd was found to be 23.7 nM, the koff is 0.00507 s⁻¹ and the kon was 214000 M⁻¹ s⁻¹.
With B3, the Kd came to 883 nM, the koff was 0.00528 s⁻¹ and the on-rate constant (kon) worked out at 8880 M⁻¹ s⁻¹.
Consider B4, for which the Kd came to 47.9 nM, the koff was found to be 0.00149 s⁻¹ and the kon amounted to 31200 M⁻¹ s⁻¹.
In the case of B5, the equilibrium dissociation constant (Kd) was 62.5 nM, the off-rate constant (koff) came to 0.00484 s⁻¹ and the kon came out at 93300 M⁻¹ s⁻¹.
Take B6: the Kd came out at 66.1 nM, the off-rate constant (koff) worked out at 0.00478 s⁻¹ and the on-rate constant (kon) came to 67600 M⁻¹ s⁻¹.
The like results for B7 were, in that order, 24.3 nM, 0.0015 s⁻¹ and 78400 M⁻¹ s⁻¹.
The like results for B8 were, in that order, 19.6 nM, 0.00343 s⁻¹ and 207000 M⁻¹ s⁻¹.
Regarding B9, the equilibrium dissociation constant (Kd) was determined as 23.9 nM, the koff was determined as 0.00179 s⁻¹ and the on-rate (kon) was 75100 M⁻¹ s⁻¹.
As to B10, the dissociation constant (Kd) is 20.4 nM, the koff amounted to 0.00254 s⁻¹ and the kon is 209000 M⁻¹ s⁻¹.
Taken in the same sequence, the figures for B11 were 99.8 nM, 0.0212 s⁻¹ and 212000 M⁻¹ s⁻¹.
For the molecule B12, the equilibrium dissociation constant (Kd) was found to be 22.1 nM, the koff amounted to 0.00274 s⁻¹ and the kon worked out at 124000 M⁻¹ s⁻¹.
With B13, the Kd is 51 nM, the off-rate constant (koff) is 0.00531 s⁻¹ and the on-rate (kon) came to 105000 M⁻¹ s⁻¹.
For the molecule B14, the dissociation constant Kd is 61.3 nM, the dissociation rate constant (koff) stood at 0.00807 s⁻¹ and the on-rate constant (kon) amounted to 142000 M⁻¹ s⁻¹.
Taken in the same sequence, the figures for B15 were 22.8 nM, 0.0049 s⁻¹ and 221000 M⁻¹ s⁻¹.
With B16, the Kd was determined as 26.9 nM, the koff was 0.000801 s⁻¹ and the on-rate constant (kon) came out at 29800 M⁻¹ s⁻¹.
The like results for B17 were, in that order, 19.2 nM, 0.0118 s⁻¹ and 631000 M⁻¹ s⁻¹.
The like results for B18 were, in that order, 21.3 nM, 0.00349 s⁻¹ and 164000 M⁻¹ s⁻¹.
The like results for B19 were, in that order, 80.3 nM, 0.00621 s⁻¹ and 141000 M⁻¹ s⁻¹.
Turning to B20, the equilibrium dissociation constant (Kd) is 21.8 nM, the koff came out at 0.00276 s⁻¹ and the on-rate (kon) was 126000 M⁻¹ s⁻¹.
Turning to B21, the Kd turned out to be 21.7 nM, the koff came out at 0.0101 s⁻¹ and the kon came to 465000 M⁻¹ s⁻¹.
Taken in the same sequence, the figures for B22 were 18.6 nM, 0.013 s⁻¹ and 871000 M⁻¹ s⁻¹.
On to B23, for which the dissociation constant (Kd) came out at 32.8 nM, the koff worked out at 0.0164 s⁻¹ and the kon was determined as 501000 M⁻¹ s⁻¹.
The like results for B24 were, in that order, 24 nM, 0.0115 s⁻¹ and 383000 M⁻¹ s⁻¹.
On to B25, for which the equilibrium dissociation constant (Kd) came out at 22.5 nM, the koff turned out to be 0.00219 s⁻¹ and the kon came out at 130000 M⁻¹ s⁻¹.
The like results for B26 were, in that order, 28.3 nM, 0.00179 s⁻¹ and 63200 M⁻¹ s⁻¹.

The values are drawn from patent US20260184782A1 (TWIST BIOSCIENCE, published 2026).
